Assay results taken from article PMC11036078, “PD‐1 inhibition with retifanlimab and/or arginase inhibition with INCB001158 in Japanese patients with solid tumors: A phase I study” (Cancer Medicine, 2024).
“And” between values parts separate entries of the source, which are not always exact repeats. Equal values may be shown once. “Also recorded” adds a separate entry of the source. Read-outs that look alike come from different tables or passages of the source.

Assays:
advanced solid tumors [1] = assay: Clinical activity by investigator per RECIST v1.1 (ORR, DCR, DOR); format: in vivo, Japanese patients
Protocol: Preliminary clinical activity of single‐agent retifanlimab and INCB001158, and the combination, was an additional secondary endpoint. Diagnostic imaging was performed by computed tomography scan every 8 ± 1 weeks. Clinical activity was assessed by measuring overall response rate (ORR), defined as the percentage of patients experiencing a complete or partial response (CR or PR) as determined by the investigator according to Response Evaluation Criteria in Solid Tumors (RECIST) v1.1; disease control rate (DCR), defined as the percentage of patients maintaining either an objective response or stable disease (SD) for at least 12 weeks per RECIST v1.1; and duration of response (DOR), defined as the time from first observed response until onset of progressive disease (PD) as determined by the investigator according to RECIST v1.1 or death from any cause.
(§1) Safety and efficacy analyses were conducted in the full analysis set, which comprised all enrolled patients who received at least 1 dose of the study drug.
(§2) Safety data were summarized using descriptive statistics. PK parameters were summarized by study part, treatment regimen, cohort, dose levels, and/or visit. ORR and DCR were reported with their exact 95% confidence intervals (CIs); DOR was based on the Kaplan–Meier estimate of the distribution function, and the estimated median along with 95% CI was reported. Statistical analyses were performed using SAS® software v9.4 or later (SAS Institute Inc., Cary, NC, USA).

[2] = Retifanlimab serum pharmacokinetics (electrochemiluminescence immunoassay, noncompartmental analysis); format: in vivo, Japanese patients; settings: for Retifanlimab tmax: median (min, max)
Protocol: (§3) Pharmacokinetics of single‐agent retifanlimab and INCB001158, and the combination, were secondary endpoints of the study. The detection of anti‐drug antibodies (ADAs) was an exploratory endpoint. Blood samples for retifanlimab PK assessments were taken on days 1 (−2 h pre‐dose, end of infusion, and 6 h post‐dose), 2, 8, and 15 (no specified time) of cycle 1, day 1 of cycles 2–8 (−2 h pre‐dose, and end of infusion on cycles 2 and 6 only), and day 1 of every 4 cycles after cycle 8 (−2 h pre‐dose). Samples for ADA assessment were collected at the same time as for PK analysis, and an additional sample was collected at safety follow‐up on day 15 (no specified time). Blood samples for INCB001158 were collected pre‐dose, 0.5, 1, 2, 4, 6, and 8 h post‐dose on days 1 and 15 of cycle 1, 12 h post‐dose on day 1 of cycle 1, and pre‐dose on days 2 and 8 for cycle 1, and day 1 of cycle 2. Serum concentrations of retifanlimab were determined using an electrochemiluminescence immunoassay method, and plasma concentrations of INCB001158 were measured using a validated liquid chromatography with tandem mass spectrometry assay (Incyte Corporation, Wilmington, DE, USA). ADAs against retifanlimab were monitored using a bridging immunoassay (Incyte Corporation).
Pharmacokinetics parameters were derived from concentrations versus time data using model‐independent noncompartmental analysis methods (WinNonlin v8.2, Certara USA Inc., Princeton, NJ, USA), and included maximum observed serum or plasma concentration (C max), serum or plasma concentration observed at the end of the dosing interval (C tau), time to maximum observed serum or plasma concentration (t max), area under the serum or plasma concentration–time curve (AUC) from time 0 to the end of the dosing interval (AUCtau), AUC from time 0 to infinity (AUC0‐∞), apparent terminal‐phase disposition half‐life, clearance, and volume of distribution. […]

[3] = test system: ADAs against retifanlimab; assay: Anti-drug antibodies against retifanlimab (bridging immunoassay); settings: samples from 12 Japanese patients
Protocol: as §3

advanced solid tumors [4] = settings: cited from earlier work
[5] = Safety and tolerability (TEAEs, DLTs, irAEs; NCI CTCAE v5.0), phase Ib POD1UM-104; settings: in vivo
Protocol: This was a phase Ib, open‐label, multicenter study (POD1UM‐104 [NCT03910530]). The study was conducted in 2 parts. In Part 1, patients received single‐agent retifanlimab or escalating doses of single‐agent INCB001158 to confirm the RP2D of each agent. Single‐agent dosing was performed to comply with local regulations. In Part 2, patients received the combination of retifanlimab and INCB001158 at their respective RP2D determined in Part 1, to further explore safety and preliminary evidence of clinical activity. Treatment cycles in Part 1 and Part 2 were 28 days, and patients could receive treatment for up to 2 years, or until disease progression, unacceptable toxicity, death, or patient withdrawal.
In Part 1, 6 patients received retifanlimab 500 mg every 4 weeks (Q4W), given as an i.v. infusion over 60 min; this dose was based on the RP2D determined from global studies. The starting dose of INCB001158 was 75 mg taken orally twice daily (BID). Dose escalation of INCB001158 followed a standard 3 + 3 design; if 75 mg BID was deemed to be tolerable in at least 3 patients, a 100‐mg BID dose level cohort comprising at least 3 patients would be opened.
DLTs were assessed by the investigator according to the National Cancer Institute (NCI) Common Terminology Criteria for Adverse Events (CTCAE) v5.0 criteria (Table S1).
The primary endpoints of the study were safety, tolerability, DLTs, and RP2D of single‐agent retifanlimab, INCB001158, and the combination. Adverse events (AEs) were graded by NCI CTCAE v5.0, and immune‐related adverse events (irAEs) were monitored as AEs of special interest. Physical examinations, monitoring of vital signs, electrocardiograms, and laboratory assessments were conducted throughout the study.
as §1, §2

[6] = Western patients; ref POD1UM‐101 (NCT03059823); cited from earlier work
[7] = RECIST v1.1, investigator, n = 6 per group
[8] = RECIST v1.1, investigator, n = 6 per group, listed as retifanlimab
[9] = first dose, in combination with INCB001158, n = 3
[10] = first dose, monotherapy 500 mg Q4W, n = 6
[11] = first dose, POD1UM-104 vs POD1UM‐101

For “Retifanlimab: humanized, hinge‐stabilized immunoglobulin G4κ monoclonal antibody targeting PD‐1”, the “Median DOR” value (advanced solid tumors [1]; Kaplan–Meier, 95% CI, 6.8 months‐not estimable, median follow‐up 11.6 months) was “not estimable”, the “Best overall response: Complete response” value (advanced solid tumors [1]; [7]) was 1 (16.7) n (%) and the “Best overall response: Partial response” value (advanced solid tumors [1]; [7]) was 1 (16.7) n (%). The “Best overall response: Progressive disease” value (advanced solid tumors [1]; [7]) was 3 (50.0) n (%), the “Best overall response: Stable disease” value (advanced solid tumors [1]; [7]) was 1 (16.7) n (%) and the “Best overall response: Complete response” value (advanced solid tumors [1]; [8]) was 1 n (%). The “Best overall response: Partial response” value (advanced solid tumors [1]; [8]) was 1 n (%), the “Best overall response: Stable disease” value (advanced solid tumors [1]; [8]) was 1 n (%) and the “ORR” value (advanced solid tumors [1]; RECIST v1.1, n = 6, 95% CI, 4.3–77.7) was 33.3% and 33%. The “DCR” value (advanced solid tumors [1]; RECIST v1.1, n = 6 per group, 95% CI, 11.8–88.2) was 50%, the “DOR of the patient with CR” value (advanced solid tumors [1]; endometrial cancer, ongoing at data cutoff) was 16.4 months and the “DOR of the patient with PR” value (advanced solid tumors [1]; lung cancer) was 6.8 months. The Retifanlimab tmax ([2]; 500 mg Q4W i.v. monotherapy, first dose, POD1UM-104, n = 6) was 1.9 (1.1, 7.1) h, the “Geometric mean clearance normalized for body weight” value ([2]; Japanese patients [POD1UM‐104]) was 3.1 mL/day/kg and the “Geometric mean volume of distribution normalized for body weight” value ([2]; Japanese patients [POD1UM‐104]) was 0.0955 L/kg. The “Mean Ctau at steady state higher in Japanese than Western patients” value ([2]; POD1UM-104 vs POD1UM‐101) was 43%, the “Drug–drug interaction (retifanlimab PK, combination vs monotherapy cohorts)” value ([2]; combination cohort) was “no drug–drug interaction” and the Retifanlimab tmax ([2]; first dose, 500 mg Q4W in combination with INCB001158, n = 3) was 0.82 (0.78, 6.0) h. For the same substance, the “Retifanlimab geometric mean AUCtau” value [2, 9] was 2280 mg·days/L, the “Retifanlimab geometric mean Cmax” value [2, 9] was 187 µg/mL and the “Retifanlimab geometric mean Ctau” value [2, 9] was 19.0 mg/L. For the same substance, the Retifanlimab median tmax [2, 9] was 0.82 h, the “Retifanlimab geometric mean AUC0‐∞” value [2, 10] was 2990 mg·days/L and the “Retifanlimab geometric mean AUCtau” value [2, 10] was 1910 mg·days/L. The “Retifanlimab geometric mean Cmax” value [2, 10] was 209 µg/mL, the “Retifanlimab geometric mean Ctau at the end of the 4‐week dosing period” value [2, 10] was 33.9 mg/L and the “Retifanlimab geometric mean clearance” value [2, 10] was 0.167 L/day. The “Retifanlimab geometric mean half‐life” value [2, 10] was 509 h, the “Retifanlimab half‐life, range” value [2, 10] was 386 to 730 h and the Retifanlimab median tmax [2, 10] was 1.9 h. The “Retifanlimab volume of distribution” value [2, 10] was 5.12 L, the “Geometric mean AUC0‐∞ higher in Japanese than Western patients” value [2, 11] was 66% and the “Geometric mean AUCtau higher in Japanese than Western patients” value [2, 11] was 47%. For the same substance, the “Geometric mean Cmax higher in Japanese than Western patients” value [2, 11] was 31%, the “Retifanlimab trough concentrations from cycle 1 to cycle 7” value ([2]; monotherapy, 3 patients with available data) was “generally increased” and the “Retifanlimab ADAs detected” value [3] was “No retifanlimab ADAs were detected; also recorded: No ADAs toward retifanlimab were observed”. The “Patients with a response” value (advanced solid tumors [4]; first‐in‐human study, endometrial cancer, 3 of 29 patients) was 10%, the “Patients with a response” value (advanced solid tumors [4]; first‐in‐human study, non‐small cell lung cancer, 6 of 26 patients) was 23% and the “Patients with SD” value (advanced solid tumors [4]; phase II study, SCAC) was 35%. The “Patients with a response” value (advanced solid tumors [4]; phase II study, SCAC) was 14%, the “Patients with an objective response” value (advanced solid tumors [4]; recurrent MSI‐H or dMMR endometrial cancer, 33 of 76 patients) was 43% and the “Grade 3 AEs reported but not occurring during the treatment window” value [5] was “lymphocyte count decreased”. The “Retifanlimab infusion interruption because of a TEAE” value [5] was 1 (16.7) n (%), the “Serious TEAE after data cutoff” value [5] was “myocarditis” and the “Serious TEAEs (terms)” value [5] was “grade 3 femoral neck fracture (n = 1), grade 3 ileus and pyelonephritis (n = 1)”. For the same substance, the “TEAE: ALT increased” value [5] was 1 (16.7) n (%), the “TEAE: AST increased” value [5] was 1 (16.7) n (%) and the “TEAE: Amylase increased” value [5] was 2 (33.3) n (%). For the same substance, the “TEAE: Anemia” value [5] was 1 (16.7) n (%), the “TEAE: Blood creatinine increased” value [5] was 1 (16.7) n (%) and the “TEAE: Diarrhea” value [5] was 1 (16.7) n (%). For the same substance, the “TEAE: Nausea” value [5] was 1 (16.7) n (%), the “TEAE: Tumor pain” value [5] was 0 n (%) and the “TRAEs reported (terms)” value [5] was “infusion‐related reactions (n = 1), pruritus (n = 1), rash (n = 1), and 1 patient who reported multiple TRAEs, consisting of anemia worsening, fatigue, diarrhea, pruritus, rash, elevated lipase, increased alanine aminotransferase (ALT), and increased aspartate aminotransferase (AST)”. The “Treatment discontinuation because of a TEAE” value [5] was 0 n (%), the “Geometric mean clearance normalized for body weight” value [6] was 4.05 mL/day/kg and the “Geometric mean volume of distribution normalized for body weight” value [6] was 0.0857 L/kg.
